Usually Kd stands for the concentration at which binding is half-saturated. The low end stands for a tighter complex, the high end for a looser complex.

Results on 2 molecules are retold here after patent publication US20210206848A1 (Stanford University, published 2021).

In assay [1] the target is T1, extracellular region of human CD45 (human, UniProt P08575 26-577).
T1 construct: also called hCD45
T1 sequence: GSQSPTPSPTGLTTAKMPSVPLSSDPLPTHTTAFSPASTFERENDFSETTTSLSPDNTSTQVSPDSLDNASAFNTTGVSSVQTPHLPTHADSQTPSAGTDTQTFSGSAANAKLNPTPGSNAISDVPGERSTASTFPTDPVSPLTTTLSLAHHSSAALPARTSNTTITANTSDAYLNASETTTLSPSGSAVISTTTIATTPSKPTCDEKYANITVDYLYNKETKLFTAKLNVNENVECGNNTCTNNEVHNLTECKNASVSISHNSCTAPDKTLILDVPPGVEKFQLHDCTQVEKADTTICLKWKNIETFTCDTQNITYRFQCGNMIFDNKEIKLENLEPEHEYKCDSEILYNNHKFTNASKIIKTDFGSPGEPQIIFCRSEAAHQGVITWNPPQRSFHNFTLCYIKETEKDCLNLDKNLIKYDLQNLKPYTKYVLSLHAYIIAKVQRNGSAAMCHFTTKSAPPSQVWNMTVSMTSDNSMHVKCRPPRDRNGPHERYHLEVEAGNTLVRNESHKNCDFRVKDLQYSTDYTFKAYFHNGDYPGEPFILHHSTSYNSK
Nature of the assay: SPR; target CD45 extracellular region. For orientation: In SPR one partner is held on a chip, and binding of the other changes the refractive index at the surface.

Assay [2] addresses T2, extracellular region of human PD-1 (human).
T2 construct: also called hPD-1
The assay is described as follows: SPR; target PD-1 extracellular region.

The target in assay [3] is T1, extracellular region of human CD45. Nature of the assay: SPR.
Assay [4] addresses T2, extracellular region of human PD-1. The assay is described as follows: SPR.

T2 sequence (chain, as listed by the source limits assumed): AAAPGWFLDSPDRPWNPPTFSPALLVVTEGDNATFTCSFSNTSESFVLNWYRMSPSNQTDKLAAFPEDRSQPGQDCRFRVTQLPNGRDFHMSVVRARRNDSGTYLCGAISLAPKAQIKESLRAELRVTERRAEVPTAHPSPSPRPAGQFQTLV

B1: CD45-PD1(Nivo)-Stabilized (bispecific antibody)
chain: QVQLVESGAEVKKPGASVKVSCKASGYTFTNYIIHWVKQEPGQGLEWIGYFNPYNHGTKYNEKFKGRATLTADKSISTAYMELSSLTSEDTAVYYCARSGPYAWFDTWGQGTTVTVSSGGGGSEIVLTQSPATLSLSPGERATLSCRASQSVSSYLAWYQQKPGQAPRLLIYDASNRATGIPARFSGSGSGTDFTLTISSLEPEDFAVYYCQQSSNWPRTFGQTKVEIKRRADAAAAGGGGSGGGGSGGGGSGGGGTGGGGSQVQLVESGGGVVQPGRSLRLDCKASGITFSNSGMHWVRQAPGKGLEWVAVIWYDGSKRYYADSVKGRFTISRDNSKNTLFLQMNSLTAEDTAVYYCATNDDYWGQGTLVTVSSGGGGSDILLTQSPATLSLSPGERATLSCRASQNIGTSIQWYQQKPGQAPRLLIRSSSESISGISSRFSGSGSGTDFTLTISSLEPEDFAVYYCQQSNTWPFTFGQGTKLEIKAAAHHHHHHHH
notes: also called αCD45-PD1(Nivo); αCD45-PD1 (Nivo)
B1: the dissociation constant (Kd) in assay [1] is approximately 300 nM; in assay [2], approximately 6 nM.

B2: CD45-PD1(VHH) (bispecific antibody)
chain: DVQLVESGGGVVQPGGSLRLSCAASGSIASIHAMGWFRQAPGKEREFVAVITWSGGITYYADSVKGRFTISRDNSKNTVYLQMNSLRPEDTALYYCAGDKHQSSWYDYWGQGTLVTVSSGGGSLEVLFQGPGSGSDILLTQSPATLSLSPGERATLSCRASQNIGTSIQWYQQKPGQAPRLLIRSSSESISGISSRFSGSGSGTDFTLTISSLEPEDFAVYYCQQSNTWPFTFGQGTKLEIKGGSTRSSSSGGGGSGGGGQVQLVESGAEVKKPGASVKVSCKASGYTFTNYIIHWVKQEPGQGLEWIGYFNPYNHGTKYNEKFKGRATLTADKSISTAYMELSSLRSEDTAVYYCARSGPYAWFDTWGQGTTVTVSSAAAHHHHHHHH
notes: Anti-CD45 scFv fused to an anti-human PD-1 nanobody (VHH, from US20170137517A1); also called αCD45-PD1(VHH); 2nd generation anti-human RIPR-PD1
On to B2, for which the results for the dissociation constant (Kd) in assay [3] and in assay [4] were approximately 700 nM and approximately 5 nM, respectively.
